Reference: patent CN112159477A (UNIV SHANGHAI MEDICAL & HEALTH SCIENCES, dated 2021)

Columns and labels:
rhMICA-His蛋白 [1] = target: T1, rhMICA-His蛋白 (human, UniProt Q29983 24-308); assay: BLI (Fortebio Octet Red96), rhNKG2D-Fc captured on AHC sensor, rhMICA-His 1.23-11.1 nM as analyte
T1 construct: Control protein; also called MICA蛋白; not shown: His tag
T1 sequence (looked up): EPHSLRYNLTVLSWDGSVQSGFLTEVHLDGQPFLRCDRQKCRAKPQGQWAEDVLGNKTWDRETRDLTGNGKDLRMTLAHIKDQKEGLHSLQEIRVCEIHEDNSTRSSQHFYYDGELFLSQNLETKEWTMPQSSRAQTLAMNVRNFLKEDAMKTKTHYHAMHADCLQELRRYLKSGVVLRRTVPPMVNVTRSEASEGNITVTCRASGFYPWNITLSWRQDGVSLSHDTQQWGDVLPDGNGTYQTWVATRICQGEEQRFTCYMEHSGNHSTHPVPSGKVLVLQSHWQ

rhMICA-His蛋白 [2] = target: T1, rhMICA-His蛋白; assay: BLI (Fortebio Octet Red96), rhNKG2D-Fc captured on AHC sensor, rhMICA-His as analyte

Kd (rhMICA-His蛋白 [1]): 1.26 nM
koff (rhMICA-His蛋白 [2]): 0.0015 s⁻¹
kon (rhMICA-His蛋白 [2]): 1.19e+06 M⁻¹ s⁻¹
B1: rhNKG2D-Fc蛋白 (Fc fusion, human, UniProt P26718 78-216, looked up)
chain: FLNSLFNQEVQIPLTESYCGPCPKNWICYKNNCYQFFDESKNWYESQASCMSQNASLLKVYSKEDQDLLKLVKSYHWMGLVHIPTNGSWQWEDGSILSPNLLTIIEMQKGDCALYASSFKGYIENCSTPNTYICMQRTV
notes: the order of the parts follows the printed name only; not shown: Fc part (captured by an anti-human IgG Fc sensor)
